Data published in patent publication US20250289865A1 (TIOC THERAPEUTICS, published 2025).

T1: AFP peptide on HLA-A*02:01 (human)
T1 peptide: FMNKFIYEI


Columns and labels:
[1] = target: T1, AFP peptide on HLA-A*02:01; experiment: killing
[2] = target: peptide on A2 positive (human); experiment: LDH release; CD8+ T cells, E:T 1:1; AFP-negative, A2-positive control cells. No unit is printed with the value.; fusion: antibody heavy chain variable region (Gln105Cys) on the beta chain, with free VL Ala43Cys; conditions: chains Valpha:Vbeta
[3] = target: … short peptide (AFP 158-166) presented on the HLA-A*0201 molecule; experiment: cell-based or functional assay

Binder	binding result [1]	EC50 of fusion protein in killing [2] [nM]	EC50 of CD8+ T cell killing (LDH release), HepG2 (A2 positive, AFP positive) [3] [nM]
AFP TCR (TCR, V domains shown) Valpha: SQQGEEDPQALSIQEGENATMNCSYKDRITNLQWYRQNSGRGLVHLILIRSNEREKHSGRLRVTLDTSKKSSSLLITASRAADTASYFCATDLEAEYKYIFGTGTRLKVLA Vbeta: ETGVTQSPTHLIKTRGQQVTLRCSSQSGHNTVSWYQQALGQGPQFIFQYYRQVANGRGNFPPRFSGLQFPNYSSELNVNALELDDSALYLCASSKDAGPVFFGQGTRLTVV	recognises	2700	
VH105-TCR β-AFP multi-domain bifunctional fusion molecule (other) TCR alpha: SQQGEEDPQALSIQEGENATMNCSYKDRITNLQWYRQNSGRGLVHLILIRSNEREKHSGRLRVTLDTSKKSSSLLITASRAADTASYFCATDLEAEYKYIFGTGTRLKVLANIQNPDPAVYQLRDSKSSDKSVCLFTDFDSQTNVSQSKDSDVYITDKTVLDMRSMDFKSNSAVAWSNKSDFACANAFNNSIIPEDTFFCSPESS EVQLVESGGGLVQPGGSLRLSCAASGYSFTGYTMNWVRQAPGKGLEWVALINPYKGVSTYNQKFKDRFTISVDKSKNTAYLQMNSLRAEDTAVYYCARSGYYGDSDWYFDVWGCGTLVTVSSGGGGSETGVTQSPTHLIKTRGQQVTLRCSSQSGHNTVSWYQQALGQGPQFIFQYYRQVANGRGNFPPRFSGLQFPNYSSELNVNALELDDSALYLCASSKDAGPVFFGQGTRLTVVEDLKNVFPPEVAVFEPSECEISHTQKATLVCLATGFYPDHVELSWWVNGKEVHSGVSTDPQPLKEQPALNDSRYALSSRLRVSATFWQNPRNHFRCQVQFYGLSENDEWTQDRAKPVTQIVSAEAWGRAD VL: DIQMTQSPSSLSASVGDRVTITCRASQDIRNYLNWYQQKPGKCPKLLIYYTSRLESGVPSRFSGSGSGTDYTLTISSLQPEDFATYYCQQGNTLPWTFGQGTKVEIKR			10.5
